From paper PMC4794909, “The transcription factor scleraxis is a critical regulator of cardiac fibroblast phenotype” come the findings set out here.

B1: E box 2 (E2), αSMA promoter (dsDNA)
DNA 1: GTTTATCCCCATAAGCAGCTGAACTGCCTCCTGTTT
DNA 2: AAACAGGAGGCAGTTCAGCTGCTTATGGGGATAAAC
B2: E box 2 mutant (mE2) (dsDNA)
DNA 1: GTTTATCCCCATAAGCTGGTGAACTGCCTCCTGTTT
DNA 2: AAACAGGAGGCAGTTCACCAGCTTATGGGGATAAAC
B3: E box 1 (E1), αSMA promoter (dsDNA)
DNA 1: GTCTGGGCATTTGAGCAGTTGTTCTGAGGGCTCAGG
DNA 2: CCTGAGCCCTCAGAACAACTGCTCAAATGCCCAGAC
B4: E box 1 mutant (mE1) (dsDNA)
DNA 1: GTCTGGGCATTTGAGCCGATGTTCTGAGGGCTCAGG
DNA 2: CCTGAGCCCTCAGAACATCGGCTCAAATGCCCAGAC

The target of this series is T1, scleraxis (Scx) (UniProt Q6P6L3 1-207).
T1 sequence: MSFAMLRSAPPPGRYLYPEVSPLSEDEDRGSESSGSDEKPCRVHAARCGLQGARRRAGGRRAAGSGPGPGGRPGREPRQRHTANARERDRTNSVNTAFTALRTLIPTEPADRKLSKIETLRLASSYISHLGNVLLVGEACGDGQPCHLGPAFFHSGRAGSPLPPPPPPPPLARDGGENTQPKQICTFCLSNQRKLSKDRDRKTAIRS
Briefly: EMSA; LightShift Chemiluminescent EMSA Kit (Pierce) per manufacturer, as in ref. 18; 500x cold competition; buffer, salt, pH and temperature not given. Conditions: chain copies: 2; label: biotin; blunt. In general terms: Mobility shift assays separate free from complexed probe on a gel.
With B1, the binding result is on record as “binds”. B2: the binding result is listed as “no binding”. The value for B3 was “binds”; that for B4 was “no binding”.
